# According to IntAct's records for PubMed 19617557:
# B1: Gamma-aminobutyric acid receptor subunit beta-3 (Rattus norvegicus (Rat)), P63079 (parent)
# chain: MWGFAGGRLFGIFSAPVLVAVVCCAQSVNDPGNMSFVKETVDKLLKGYDIRLRPDFGGPPVCVGMNIDIASIDMVSEVNMDYTLTMYFQQYWRDKRLAYSGIPLNLTLDNRVADQLWVPDTYFLNDKKSFVHGVTVKNRMIRLHPDGTVLYGLRITTTAACMMDLRRYPLDEQNCTLEIESYGYTTDDIEFYWRGGDKAVTGVERIELPQFSIVEHRLVSRNVVFATGAYPRLSLSFRLKRNIGYFILQTYMPSILITILSWVSFWINYDASAARVALGITTVLTMTTINTHLRETLPKIPYVKAIDMYLMGCFVFVFLALLEYAFVNYIFFGRGPQRQKKLAEKTAKAKNDRSKSEINRVDAHGNILLAPMDVHNEMNEVAGSVGDTRNSAISFDNSGIQYRKQSMPKEGHGRYMGDRSIPHKKTHLRRRSSQLKIKIPDLTDVNAIDRWSRIVFPFTFSLFNLVYWLYYVN
# Variants of: B1
# Conditions: with ap2m1_rat Ap2m1, P84092
# Chain of ap2m1_rat Ap2m1, P84092 (P84092 whole entry): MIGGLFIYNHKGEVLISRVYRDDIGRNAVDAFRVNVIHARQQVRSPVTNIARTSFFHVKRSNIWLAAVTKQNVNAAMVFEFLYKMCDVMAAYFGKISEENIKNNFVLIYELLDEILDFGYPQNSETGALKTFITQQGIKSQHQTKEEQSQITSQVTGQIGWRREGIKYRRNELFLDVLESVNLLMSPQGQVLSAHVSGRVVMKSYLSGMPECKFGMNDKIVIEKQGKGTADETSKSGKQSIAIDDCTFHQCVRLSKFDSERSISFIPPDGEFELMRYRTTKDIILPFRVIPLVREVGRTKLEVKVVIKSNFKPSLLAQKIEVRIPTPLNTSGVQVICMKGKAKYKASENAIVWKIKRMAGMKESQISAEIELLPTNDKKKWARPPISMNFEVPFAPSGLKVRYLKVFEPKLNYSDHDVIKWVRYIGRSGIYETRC
row,Variant,effect of a mutation on the interaction
1,S432A;S433A,decreasing interaction strength
